Laboratory results taken from paper PMC10919400.

Legend:
human plasmin = human plasmin (UniProt P00747); assay: whole-bacteria Pln binding; bound Pln activity measured with chromogenic substrate (VALY); conditions: +Pln: S. suis is incubated with Pln; parent: est. 100; read off a plot
human plasminogen = assay: whole-bacteria Plg binding; bound Plg converted to Pln with tPA, Pln activity measured with chromogenic substrate (VALY); conditions: +Plg/+tPA: S. suis is incubated with Plg and tPA; parent: est. 100; read off a plot

Chain of UniProt P00747 (P00747 581-810, chain 1 of 2): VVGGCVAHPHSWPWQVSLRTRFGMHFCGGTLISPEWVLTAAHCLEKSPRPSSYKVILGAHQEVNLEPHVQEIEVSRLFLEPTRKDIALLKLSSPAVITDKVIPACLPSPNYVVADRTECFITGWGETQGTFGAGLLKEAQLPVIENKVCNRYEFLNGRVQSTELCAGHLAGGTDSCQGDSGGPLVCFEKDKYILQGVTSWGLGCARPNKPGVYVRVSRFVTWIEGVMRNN
Chain of UniProt P00747 (P00747 581-810, chain 2 of 2): as the sequence (P00747 581-810, chain 1 of 2) above

Substance | percent of parent (% of wild-type) (human plasmin) | percent of parent (% of wild-type) (human plasminogen)
Streptococcus suis P1/7 enolase, wild type, on intact bacteria (from UniProt A4W2T1) K434A; K435A | 46 | 55
Streptococcus suis P1/7 enolase, wild type, on intact bacteria (from UniProt A4W2T1) K252A; E253G; K255A | 63 | 55
Streptococcus suis P1/7 enolase, wild type, on intact bacteria (from UniProt A4W2T1) K261A | 56 | 58
Streptococcus suis P1/7 enolase, wild type, on intact bacteria (from UniProt A4W2T1) K252A; K261A | 50 | 57
